PMC7509637 (Advanced Science, 2020)
Entries after “also recorded” stand apart in the source; their conditions may differ.

B1: FapCS: FapC seeds obtained by sonication of mature FapC fibrils (P. aeruginosa) (protein)
chain: GNEGGWHPPKPNPQSNNKGGATALVVDTQQNYNNKVSNFGTLNNASVSGSIKDASGNVGVNVAAGDNNQQANAAALASADASFVFGTATASTSVLQSGYGNTLNNYSNPNTASLSNSANNVSGNLGVNVAAGNFNQQKNDLAAAVSNGQYSTAGSAASQTSTGNTTVNSANYAYGGTYVSLKLNADGSYKGTSDQIGDVYLDTWEGQTHPGGSNTGHIDVDSQAQGAKDLNHDGGAFAFKEKGDVDLKGTVSGFIPAIVGFKTPVTNNASLSNSLQNVSGNVGVNIAAGGGNQQSNSLSIAAGCSSCPAGGESLGF

Columns and labels:
[1] = target: T1, Aβ (Homo sapiens, UniProt P05067); test: ThT kinetic assay of Aβ fibrillization (seeding with FapC species, Aβ seeds, bLgS); assay type: biochemical; details: 37 °C, n = 3
T1 construct: purchased Anaspec Inc
Description: FapC seeds (FapCS) were produced by FapC fibrils of three different ages. The FapC monomers were produced as described^[ ^45 ^] and stored in 6 M GdmCl. Prior to fibrillization, the FapC monomers were purified via a PD10 desalting column. FapC monomers (1 mg mL^−1 or 40 × 10^−6 M) were incubated in deionized water at 37 °C for 1 week to produce mature fibrils and at 37 °C or 25 °C for 4 d to obtain young fibrils. Deionized water was used to make FapC fibrils as it is convenient to transfer the samples to other experimental conditions, i.e., buffered Aβ solution or PBS for in vivo microinjection. However, bacterial amyloids like FapC and curli can make amyloids over a range of conditions.^[ ^93 ^] FapCS were produced by sonicating an aqueous solution of FapC fibrils (10 × 10^−6 M) at 20 power of a probe sonicator (Sonics Vibracell: 750 watts and 20 kHz) for 2 min with 1 s on/off cycle. For in vitro cross‐seeding experiments, 50 × 10^−6 M of Aβ monomers were incubated with 5 × 10^−6 M of FapCS (10:1 molar ratio, Aβ:FapCS) at 37 °C. bLg amyloids were synthesized by heating of bLg monomers (80 °C, pH 2) of 10 mg mL^−1 solution for 24 h. Prior to the production of bLgS, the bLg amyloid solution was brought to pH 7 and then sonicated, similar to FapC, to generate bLgS.
Aβ (Anaspec Inc., purity ≥ 95%) was dissolved in 100 µL of hexafluoro‐2‐propanol (HFIP) and incubated at room temperature for 3 h. The acquired aliquots of this solution were freeze dried and stored at −20 °C for further experimentation. […] For the ThT kinetic assay, a 100 µL of aqueous solution containing Aβ (50 × 10^−6 M), FapCS or bLgS (5 × 10^−6 M) and ThT dye (100 × 10^−6 M) was incubated (37 °C) in a 96‐well plate. The ThT fluorescence (excitation: 445 nm/ emission: 485 nm) was recorded at specified time intervals for 50 h. Kinetic parameters (rate constant k, half‐life t 1/2 and lag‐time) were calculated as described.^[ ^94 ^] Briefly, kinetic curves were fitted to a sigmoidal curve =y0+ymax−y0/1+e^−(t−t1/2)k , where y 0 and y max are initial and final ThT fluorescence values, allowing us to calculate lag time = t 1/2 − 2/k.

[2] = system: adult zebrafish brain; test: Synaptophysin IHC in brain of adult zebrafish; assay type: in vivo, zebrafish (AB, Danio rerio); details: for synaptophysin-positive synapses/cells (in words): n = 3
Description: Adult zebrafish (10 months) were employed for the study. Prior to microinjection, adult zebrafish were anesthetized by placing them in a beaker filled with ice‐chilled tricaine (0.01% in Holtfreter's buffer) for 20 s. The samples of Aβ alone and Aβ with FapCS or bacterial biofilm fragments were injected to the cerebroventricular space of adult fish with a 1 µL Hamilton glass syringe. The concentration of the Aβ peptide was 40 × 10^−6 M (in PBS, pH 7.4) while FapCS or biofilm fragments were included at a 10:1 ratio (Aβ:FapCS or biofilm fragments). The needle penetrated between left and right telencephalon for not more than 1 mm and injection volume was 1 µL. The syringe was washed with ethanol and PBS in between the injections. The injections were made under a stereomicroscope and fish were held in place with forceps. After microinjection, the fish was placed back in the water tank for recovery.
The deposition of Aβ, depletion of synaptophysin positive cells and TUNEL assay were measured by IHC. The adult fish, at 4 d or 2 weeks postinjection with Aβ and Aβ with FapCS or biofilm fragments, were euthanized by placing in ice‐chilled tricaine (0.4% in Holtfreter's buffer) for 1 min. The head of the fish was separated at pectoral fin point with a sharp blade and fixed in paraformaldehyde as described in the “Animal husbandry and ethics statement” section. The fixed heads were dehydrated by dipping in gradual concentration of ethanol, i.e., 20%, 40%, 60%, 80%, and 100% with 10 min at each step. The heads were treated with 20% sucrose overnight, mounted with Tissue Trek OCT mounting medium at −20 °C. The heads were then sectioned into […] section with a cryostat. The sections were mounted on a gelatinized glass slide and immunostained with antibodies. The sections were dried, washed thrice in PBS (pH 7.4), and TritonX‐100 (0.05% in PBS) for 5 min each. […] The sections were imaged by a fluorescence microscope and fluorescence intensities were measured from the images with Fiji ImageJ analysis.

Row | Molecule | fibrillization rate constant (k) ([1]; Aβ 50 × 10^−6 M alone or with FapCS 5 × 10^−6 M) | synaptophysin-positive synapses/cells (in words) ([2]; 2 weeks postinjection) | synaptophysin-positive synapses/cells (in words) ([2]; 4 d postinjection) | effect on half-life t1/2 of Aβ (in words) ([1]; 5 × 10^−6 M with Aβ 50 × 10^−6 M, **, p < 0.005) | effect on rate constant k of Aβ (in words) ([1]; 5 × 10^−6 M with Aβ 50 × 10^−6 M, FapCS *, p < 0.05, FapC monomer and fibrils **, p < 0.005) | lag time of Aβ (in words) ([1]; Aβ 50 × 10^−6 M with FapCS 5 × 10^−6 M, **, p < 0.005) | effect on Aβ fibrillization (ThT) ([1]; Aβ 50 × 10^−6 M, seeds/FapC species 5 × 10^−6 M, ThT fluorescence ex 445/em 485 nm) | synapse health (in words) ([2]; FapCS alone, 4 × 10^−6 M, Figure S13)
1 | amyloid beta [Aβ] | 0.7 h⁻¹ | neurodegeneration of synaptophysin positive cells; also recorded: degenerate synaptophysin‐positive synapses | synaptophysin positive neuronal cells |  |  |  |  | 
2 | B1 |  |  |  | significantly shortened | significantly increased | significantly shortened | acceleration of Aβ fibrillization | Healthy synapses
